Target: T1, GST fused with the ARF6-binding domain (LZII, leucine zipper II domain) of human JIP3 (aa 371-507) (human, UniProt Q9UPT6 371-507)
T1 construct: JIP3, human, residues 371-507 (LZII, leucine zipper II domain); also called GST-LZII; LZII domain of human JIP3; source: pGEX construct, purified as described [35]; not shown: GST, N-terminal, kept
T1 sequence (looked up): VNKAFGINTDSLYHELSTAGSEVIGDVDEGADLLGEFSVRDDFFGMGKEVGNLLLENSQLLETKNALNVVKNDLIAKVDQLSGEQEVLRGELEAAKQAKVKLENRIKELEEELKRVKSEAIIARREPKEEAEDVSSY
Experiment: pull-down; GST-LZII (37 ug/reaction) incubated with cleared MDA-MB-231 cell lysates for 15 min at 4°C with 0.5% BSA, then glutathione-Sepharose beads for 1 h at 4°C; lysis buffer 50 mM Tris pH 7.4, 137 mM NaCl, 10 mM MgCl2, 10% glycerol, 1% Triton-X100; bound proteins immunoblotted with anti-ARF6 monoclonal antibody
Conditions: one partner purified

B1: ARF6T157N (natural protein, UniProt P62330 1-175, looked up)
chain: MGKVLSKIFGNKEMRILMLGLDAAGKTTILYKLKLGQSVTTIPTVGFNVETVTYKNVKFNVWDVGGQDKIRPLWRHYYTGTQGLIFVVDCADRDRIDEARQELHRIINDREMRDAIILIFANKQDLPDAMKPHEIQEKLGLTRIRDRNWYVQPSCANSGDGLYEGLTWLTSNYKS
notes: ADP-ribosylation factor 6 (ARF6), fast-cycling mutant T157N; also called fast-cycling mutant of ARF6; ARF6T15TN
  fold increase in GTP-ARF6 pulled down, against parental MDA-MB-231 cells: ~4 fold
